Experimental data: PMC7168753 (Science (New York, N.Y.), 2019)

B1: DH270 UCA with the improbable G57R mutation (antibody, V domains shown)
VH: not shown
VL: QSALTQPASVSGSPGQSITISCTGTSSDVGSYNLVSWYQQHPGKAPKLMIYEVSKRPSGVSNRFSGSKSGNTASLTISGLQAEDEADYYCCSYAGSSTVIFGGGTKLTVL
B2: DH270 UCA (antibody, format not stated in the text) (antibody, V domains shown)
VH: not shown
VL: B1 VL

Target: CH848 10.17DT stabilized SOSIP gp140 Env trimer (HIV-1)
Experiment: SPR

| Binder | Kd [nM] |
| --- | --- |
| B1 | 132 |
| B2 | 558 |
